{"source": "patent US20250320497A1", "about": "“COMPOSITIONS AND METHODS FOR TREATING HEPATITIS B VIRUS (HBV) INFECTION AND HBV-ASSOCIATED DISEASES” (priority 2022, published 2025)", "origin": "cited, not measured here", "molecules": {"B1": {"name": "GC 1102: fully human anti-HBsAg mAb in development for chronic HBV infection (antibody, chains of the INN, looked up, V domains shown)", "VH": "EVQLVESGGGLVKPGGSLRLSCSASGFSLTKYKMTWVRQAPGKGLEWVSSISSTSRDIDYADSVKGRFTISRDNAKNSLFLQMSSLRVDDTAVYYCTRDGWLWGWDVRSNYYYNALDVWGQGTTVTVSS", "VL": "DIVVTQSPSSLSASVGDRVTITCRASQGIYNSIAWYQQKPGKAPKLLLYSTSTLLSGVPSRFSGSGSGTDYTLTITNLQPEDFATYYCQQYFVTPETFGQGTKLEIK"}}, "test_system": "chronic HBV infection", "settings": "Phase 1, patients with chronic HBV infection", "data": [{"molecule": "B1", "values": [{"measurement": "lowering of HBsAg", "value": "2-3 log10 IU/mL"}, {"measurement": "tolerability", "value": "well tolerated"}]}]}
